According to patent EP0256654B1:

Tests used:
[1] = target: partially purified 17-1A antigen (isolated from SW116 cells) (human) (UniProt P16422); assay: competition with 125I murine 17-1A on plates coated with partially purified 17-1A antigen; 50% binding value
[2] = target: partially purified 17-1A antigen (isolated from SW116 cells) (human) (UniProt P16422); assay: cold murine 17-1A competing with 125I murine 17-1A on plates coated with partially purified 17-1A antigen; 50% binding value

| IC50 [1] [µg/mL] | IC50 [2] [µg/mL] | Substance |
| --- | --- | --- |
| 0.3 |  | G1K 17-1A Chimeric IgG (from UniProt P01857 1-330) (antibody) |
|  | 0.16 | murine monoclonal antibody 17-1A |
